Data taken from US20260265385A1 (ANAPTYSBIO, published 2026).
Positions count from the first letter of the chain named.

How the values were obtained:
[1] = target: T1, recombinant human IL-2Rβ (extracellular domain, Ala1-Thr215) (human, UniProt P14784 27-240); test: SPR, antibody captured on Protein A chip
T1 construct: extracellular domain; Analyte in SPR; Ala1-Thr215 is counted on the mature protein; also called human LL-2Rβ; Human IL-2RB
T1 sequence (looked up): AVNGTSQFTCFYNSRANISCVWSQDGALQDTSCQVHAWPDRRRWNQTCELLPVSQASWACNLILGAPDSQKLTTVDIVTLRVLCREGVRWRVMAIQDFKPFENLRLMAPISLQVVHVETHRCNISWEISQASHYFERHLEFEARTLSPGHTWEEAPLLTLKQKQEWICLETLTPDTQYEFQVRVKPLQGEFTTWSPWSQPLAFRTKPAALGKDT
Outline: (§1)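 Antibodies captured on a Protein A chip (0.5 μg/mL, 60 s), then exposed to IL-2Rβ extracellular domain (Ala1-Thr215) at about 0.4–11 nM; 300 s association, 1200 s dissociation. On- and off-rates and KD from a global 1:1 binding fit.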

[2] = target: T2, recombinant cynomolgus IL-2Rβ (extracellular domain, Ala1-Thr215) (cynomolgus, UniProt Q38J85 27-240); test: SPR, antibody captured on Protein A chip
T2 construct: extracellular domain; Analyte in SPR; also called cynomolgus LL-2Rβ; Cyno IL-2RB
T2 sequence (looked up): T1 sequence (looked up) with Q7R, A66T, T74A, L83M, V92M, E127K, L158M
Outline: as §1

[3] = target: T3, cynomolgus IL-2Rβ (CD122), full-length, on cells (cynomolgus, UniProt Q38J85 27-551); test: flow cytometry on CHO-K1 cells expressing cynomolgus IL-2Rβ and IL-2Rγ
T3 construct: whole, on cells; Co-expressed with full-length cynomolgus IL-2Rγ on CHO-K1 cells; also called cynomolgus IL-2Rβγ; cyno IL-2βγ
T3 sequence (looked up): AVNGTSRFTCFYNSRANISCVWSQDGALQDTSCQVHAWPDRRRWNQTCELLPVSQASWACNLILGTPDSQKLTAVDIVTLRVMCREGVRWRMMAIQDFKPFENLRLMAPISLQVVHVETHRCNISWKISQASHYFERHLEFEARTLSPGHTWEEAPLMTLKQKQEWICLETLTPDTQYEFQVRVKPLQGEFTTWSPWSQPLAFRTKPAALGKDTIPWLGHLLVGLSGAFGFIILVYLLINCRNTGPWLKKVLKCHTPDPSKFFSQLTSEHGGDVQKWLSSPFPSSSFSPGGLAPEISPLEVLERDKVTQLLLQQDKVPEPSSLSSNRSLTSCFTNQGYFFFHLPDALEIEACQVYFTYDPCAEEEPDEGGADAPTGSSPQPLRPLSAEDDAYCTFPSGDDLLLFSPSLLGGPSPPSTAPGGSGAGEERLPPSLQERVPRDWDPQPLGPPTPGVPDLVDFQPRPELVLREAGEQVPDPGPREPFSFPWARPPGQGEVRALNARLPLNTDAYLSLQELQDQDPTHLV
Protocol: (§2) CHO-K1 cells stably expressing full-length human or cynomolgus IL-2Rβ and IL-2Rγ cultured in the log phase of growth were harvested with Accutase solution, resuspended in FACS buffer, and plated at 100,000 cells/well in a 96-well plate. The concentrations of antibodies indicated in FIGS. 1 and 2 starting at 100 nM and diluted 1:3 were incubated with the cells for 45 minutes on a plate shaker at 4° C. After washing, the cells were incubated with goat-anti-human kappa DyL650 secondary antibody for 20 minutes on a plate shaker at 4° C. Cells were washed again and analyzed on a FACSArray flow cytometer. Data were analyzed using Novoexpress and GraphPad Prism software. Table 3 lists anti-CD122 chimeric antibody binding characteristics: affinity to human and cyno CD122 protein (KD, measured by SPR assay), ability to block IL-2 (SPR assay), and binding EC50 to cell-expressed human and cyno CD122/CD132 (cell-based receptor binding assay).

[4] = target: T4, human IL-2Rβ (CD122), full-length, on cells (human, UniProt P14784 27-551); test: flow cytometry on CHO-K1 cells expressing human IL-2Rβ and IL-2Rγ
T4 construct: whole, on cells; also called human IL-2Rβγ; human IL-2βγ
T4 sequence (looked up): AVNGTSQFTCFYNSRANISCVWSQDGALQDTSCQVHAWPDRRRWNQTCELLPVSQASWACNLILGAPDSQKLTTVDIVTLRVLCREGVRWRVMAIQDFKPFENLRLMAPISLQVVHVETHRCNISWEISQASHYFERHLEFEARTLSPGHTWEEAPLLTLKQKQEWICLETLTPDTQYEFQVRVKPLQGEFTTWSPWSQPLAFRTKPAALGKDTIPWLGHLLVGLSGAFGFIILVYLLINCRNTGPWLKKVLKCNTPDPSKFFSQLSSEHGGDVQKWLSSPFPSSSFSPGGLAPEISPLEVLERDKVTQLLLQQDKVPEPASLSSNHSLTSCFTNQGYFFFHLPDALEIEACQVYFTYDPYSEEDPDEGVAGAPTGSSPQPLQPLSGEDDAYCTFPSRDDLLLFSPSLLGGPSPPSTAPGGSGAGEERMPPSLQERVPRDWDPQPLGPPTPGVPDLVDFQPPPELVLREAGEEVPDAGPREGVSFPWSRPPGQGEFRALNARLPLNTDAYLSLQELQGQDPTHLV
Protocol: as §2

[5] = target: T1, recombinant human IL-2Rβ (extracellular …); test: SPR
[6] = target: T2, recombinant cynomolgus IL-2Rβ …; test: SPR
[7] = target: T4, human IL-2Rβ (CD122), full-length, on …; test: flow cytometry competition: antibody titrated against recombinant IL-15 (2 nM) binding to HEK293 cells expressing human IL-2Rβ and IL-2Rγ
Protocol: (§3) HEK293 cells stably transfected with human IL-2Rβ and IL-2Rγ were plated at 100,000 cells/well in a 96 well plate. Antibodies were titrated at the concentrations indicated in FIG. 8 starting at 100 nM and diluted 1:3, and added to the cells. Recombinant IL-2 (5 nM) or recombinant IL-15 (2 nM) were also added to the cells. Cells were incubated for 30 minutes on a plate shaker at 4° C. Cells were washed and then analyzed on a flow cytometer, and data were analyzed using Novoexpress and GraphPad Prism software.

[8] = target: T4, human IL-2Rβ (CD122), full-length, on …; test: flow cytometry competition: antibody titrated against recombinant IL-2 (5 nM) binding to HEK293 cells expressing human IL-2Rβ and IL-2Rγ
Protocol: as §3

[9] = target: T3, cynomolgus IL-2Rβ (CD122), full-length, …; test: flow cytometry on CHO-K1 cells expressing cynomolgus IL-2Rβ and IL-2Rγ (panel 'Cell Binding cyno IL-2Rbg CHO'); unit taken from the axis 'Antibody Concentration nM'
Protocol: (§4) CHO-K1 cells stably expressing either full-length human or cyno IL-2Rβ and IL-2Rγ cultured in the log phase of growth were harvested with Accutase solution, resuspended in FACS buffer, and plated at 100,000 cells/well in a 96 well plate. The concentrations indicated in FIG. 5 of antibodies starting at 100 nM and diluted 1:3 were incubated with the cells for 45 minutes on a plate shaker at4° C. After washing, cells were incubated with goat anti-human kappa DyL650 secondary antibody for 20 minutes on a plate shaker at4° C. Cells were washed again and analyzed on a FACSArray flow cytometer. Data were analyzed using Novoexpress and GraphPad Prism software.

[10] = target: T4, human IL-2Rβ (CD122), full-length, on …; test: flow cytometry on CHO-K1 cells expressing human IL-2Rβ and IL-2Rγ (panel 'Cell Binding human IL-2Rbg CHO'); unit taken from the axis 'Antibody Concentration nM'
Protocol: as §4

B1: APE12383 (antibody, V domains shown)
VH: QVQLQQSGAELMKPGASVKISCKSTGYTFSRYWIEWVKQRPGHGLEWIGEILPGSGSINHNEKFQGKATFTADTSSNTVYMQLSSLTSEDSAVYFCTRHYGSFDYWGQGTTLTVSS
VL: EIVMTQSPKFMSTSVGDRVSVTCKASQNVGTDVAWYQQKPGQSPKALIYSASYRYNGVPDRFTGSGSGTDFTLTISNVQSEDLAEYFCHQYSSYPFTFGSGTKLEIKR
notes: M6-p1625 series; human kappa detected by the secondary antibody; also called APE 12383.03; M6-p1625
Kd [1]: 0.34 nM
Kd [2]: 0.26 nM
EC50 [3]: 0.147 nM
EC50 [4]: 0.142 nM
Kd [5]: ~0.34 nM
Kd [6]: ~0.26 nM

B2: APE15295 (antibody)
heavy: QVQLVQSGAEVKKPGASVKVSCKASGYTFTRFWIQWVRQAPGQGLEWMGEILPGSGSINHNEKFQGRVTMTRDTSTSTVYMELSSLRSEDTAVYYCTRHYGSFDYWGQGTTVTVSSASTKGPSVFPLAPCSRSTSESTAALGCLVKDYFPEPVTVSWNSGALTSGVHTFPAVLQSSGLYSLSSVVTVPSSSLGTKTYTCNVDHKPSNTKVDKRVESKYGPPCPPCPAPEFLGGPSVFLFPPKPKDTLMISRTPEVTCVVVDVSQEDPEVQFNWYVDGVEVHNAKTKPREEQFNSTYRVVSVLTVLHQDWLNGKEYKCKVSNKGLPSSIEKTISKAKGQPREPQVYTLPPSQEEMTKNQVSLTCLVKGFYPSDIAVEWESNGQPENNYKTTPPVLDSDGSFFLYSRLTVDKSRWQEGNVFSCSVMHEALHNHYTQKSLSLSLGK
light: DIQMTQSPSSLSASVGDRVTITCKASQNVGTDVAWYQQKPGKAPKSLIYSASYRYSGVPSRFSGSGSGTDFTLTISSLQPEDFATYFCHQYESYPFTFGQGTKLEIKRTVAAPSVFIFPPSDEQLKSGTASVVCLLNNFYPREAKVQWKVDNALQSGNSQESVTEQDSKDSTYSLSSTLTLSKADYEKHKVYACEVTHQGLSSPVTKSFNRGEC
notes: M6-p1625 series
IC50 (read off the curve) [7]: ~0.05 nM
Kd [1]: 0.0557 nM
Kd [2]: 0.0707 nM
IC50 (read off the curve) [8]: ~0.08 nM

B3: APE15170 (antibody)
heavy: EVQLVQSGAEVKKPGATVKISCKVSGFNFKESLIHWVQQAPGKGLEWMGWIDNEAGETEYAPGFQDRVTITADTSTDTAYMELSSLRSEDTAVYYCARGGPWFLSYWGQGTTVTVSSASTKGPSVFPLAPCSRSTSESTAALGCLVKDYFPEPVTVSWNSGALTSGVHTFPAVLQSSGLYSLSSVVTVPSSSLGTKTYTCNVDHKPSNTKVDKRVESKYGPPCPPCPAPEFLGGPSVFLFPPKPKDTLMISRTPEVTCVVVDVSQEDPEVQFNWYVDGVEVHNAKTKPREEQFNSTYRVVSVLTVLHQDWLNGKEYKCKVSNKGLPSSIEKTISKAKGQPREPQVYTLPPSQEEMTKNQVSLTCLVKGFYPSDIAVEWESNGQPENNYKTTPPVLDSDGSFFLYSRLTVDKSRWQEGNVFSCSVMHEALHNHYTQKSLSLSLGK
light: EIVMTQSPATLSVSPGERATLSCRASQIISNNLHWYQQKPGQAPRLLIIYGLQSISGIPARFSGSRSGTEFTLTISSLQSEDFAVYFCQQSNNFPWTFGQGTKLEIKRTVAAPSVFIFPPSDEQLKSGTASVVCLLNNFYPREAKVQWKVDNALQSGNSQESVTEQDSKDSTYSLSSTLTLSKADYEKHKVYACEVTHQGLSSPVTKSFNRGEC
notes: M10-1275 series
IC50 (read off the curve) [7]: ~0.4 nM
Kd [1]: 0.0128 nM
Kd [2]: 0.00487 nM
EC50 [9]: 0.146 nM
IC50 (read off the curve) [8]: ~0.4 nM
EC50 [10]: 0.139 nM

B4: APE12705 (antibody, V domains shown)
VH: DVQLQQSGAELARPGASVKLSCTVSGFNFKDSLMHWVTQGPERGLRWIGWIDSENGETEYAPGFQDKATITADTSSSTVYLHLSSLTSEDTAIYYCARGGPWFLSYWGPGTTLTVSS
VL: DIVLTQTPATLSVTPGDSVSLSCRASQIISNNLHWYQQKSHESPRLLIIYGLQSISGIPYRFSGRRSGTDFTLNINSVEIEDFGMYFCQQSNNWPWTFGGGTKLDIRR
notes: M10-1275 series; human kappa detected by the secondary antibody; also called APE 12705.02; M10-1275
Kd [1]: 0.08 nM
Kd [2]: 0.02 nM
EC50 [3]: 0.0876 nM
EC50 [4]: 0.174 nM
Kd [5]: ~0.08 nM
Kd [6]: ~0.02 nM
